This is an account of results in US20240209099A1 (SUZHOU TRANSCENTA THERAPEUTICS, published 2024).

Assay [1] addresses T1, Recombinant Human VEGFR2/KDR Protein, His tag (hVEGFR2-his) (human, UniProt P35968 20-764).
T1 construct: Expressed in HEK293, bought from ACRO Biosystems; also called human VEGFR2-his; Human VEGFR2/KDR-His
Briefly: ELISA, human VEGFR2-his coated, anti-human Fc-HRP; antibody made in CHO cells. In general terms: In an ELISA, binding on a coated surface is turned into a signal by an enzyme label.

Assay [2] addresses T2, human VEGFR2 on HUVEC cells (human, UniProt P35968 20-1356).
T2 construct: also called hVEGFR2 on HUVEC
The experiment in a line: flow cytometry on HUVEC cells, MFI, anti-human IgG (H+L)-PE. Here is the method: Same methods with Example 11. Briefly, Log phase HUVEC cells were collected and added to each tube. Then 100 μl/tube serial diluted humanized antibodies in FACS buffer were added and kept at 4° C. for 1 hr. Binding of antibodies to HUVEC was detected by PE signal of the 2nd antibody (anti-hIgG (H+L)-PE), which was added after the 1st antibodies. (see FIG. 15).
(Flow cytometry measures light scatter and fluorescence of single cells or particles in a stream.)

Assay [3] has as its target T3, Recombinant Rhesus macaque VEGFR2/KDR Protein, His tag (rhesus macaque).
T3 construct: Expressed in HEK293, bought from ACRO Biosystems; also called rhesus VEGFR2-his; rhesus VEGFR2
T3 chain: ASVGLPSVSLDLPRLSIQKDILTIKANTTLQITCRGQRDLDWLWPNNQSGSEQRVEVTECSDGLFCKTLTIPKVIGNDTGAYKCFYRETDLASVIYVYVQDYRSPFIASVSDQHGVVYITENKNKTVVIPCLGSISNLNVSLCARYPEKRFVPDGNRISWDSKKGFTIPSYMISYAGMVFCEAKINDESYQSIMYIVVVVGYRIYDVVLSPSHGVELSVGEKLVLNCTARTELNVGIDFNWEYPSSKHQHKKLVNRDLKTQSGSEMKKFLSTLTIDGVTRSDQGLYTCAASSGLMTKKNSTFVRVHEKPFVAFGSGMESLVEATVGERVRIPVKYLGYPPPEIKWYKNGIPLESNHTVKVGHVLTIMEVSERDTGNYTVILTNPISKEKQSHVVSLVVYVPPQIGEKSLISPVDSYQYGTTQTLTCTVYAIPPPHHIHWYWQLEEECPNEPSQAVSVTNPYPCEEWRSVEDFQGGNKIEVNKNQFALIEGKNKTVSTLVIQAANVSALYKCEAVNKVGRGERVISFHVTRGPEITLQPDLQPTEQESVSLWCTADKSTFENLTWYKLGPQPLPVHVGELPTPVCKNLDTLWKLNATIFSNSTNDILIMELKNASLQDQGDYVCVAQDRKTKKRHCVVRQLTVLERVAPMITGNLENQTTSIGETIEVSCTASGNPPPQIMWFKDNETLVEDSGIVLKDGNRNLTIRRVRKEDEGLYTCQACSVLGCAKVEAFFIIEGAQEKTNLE
Briefly: ELISA, rhesus VEGFR2-his coated, anti-human Fc-HRP; antibody made in CHO cells.

In assay [4] the target is T3, Recombinant Rhesus macaque VEGFR2/KDR …. The experiment in a line: competition ELISA: VEGF-A coated (0.25 ug/ml), antibody titrated together with 1 ug/ml rhesus VEGFR2, detection with mouse anti-VEGFR2 serum and anti-mouse Fc-HRP; blocked ligand VEGF-A. Here is the method: For this assay, 0.25 μg/ml VEGF-A was coated on ELISA plate before a mixture of chimeric antibodies and VEGFR2 were added. To detect free VEGF-A (not bind to VEGFR2), 1:1000 diluted mouse serum (mouse previous immunized with human VEGFR2) were added and HRP conjugated goat anti-mouse Fc antibody was used as secondary antibody.
Same protocol of Example 10. Briefly, 0.25 μg/ml VEGF-A was coated overnight at 4° C. After blocking, serial diluted 54-H2L1, 48-H3L1, Ramucirumab and 1 μg/ml human VEGFR2 or rhesus VEGFR2 were added at the same time for 2 hour-incubation. After wash, mouse serum containing polyclone VEGFR2 antibody and HRP conjugated goat anti-mouse Fc antibody were added for detection of free VEGF-A coated on the plates (see FIGS. 13A and 13B).

In assay [5] the target is T4, human VEGFR3 protein (human, UniProt P35916 25-776).
T4 construct: also called Sino Biological 10806-H08H
T4 sequence (looked up): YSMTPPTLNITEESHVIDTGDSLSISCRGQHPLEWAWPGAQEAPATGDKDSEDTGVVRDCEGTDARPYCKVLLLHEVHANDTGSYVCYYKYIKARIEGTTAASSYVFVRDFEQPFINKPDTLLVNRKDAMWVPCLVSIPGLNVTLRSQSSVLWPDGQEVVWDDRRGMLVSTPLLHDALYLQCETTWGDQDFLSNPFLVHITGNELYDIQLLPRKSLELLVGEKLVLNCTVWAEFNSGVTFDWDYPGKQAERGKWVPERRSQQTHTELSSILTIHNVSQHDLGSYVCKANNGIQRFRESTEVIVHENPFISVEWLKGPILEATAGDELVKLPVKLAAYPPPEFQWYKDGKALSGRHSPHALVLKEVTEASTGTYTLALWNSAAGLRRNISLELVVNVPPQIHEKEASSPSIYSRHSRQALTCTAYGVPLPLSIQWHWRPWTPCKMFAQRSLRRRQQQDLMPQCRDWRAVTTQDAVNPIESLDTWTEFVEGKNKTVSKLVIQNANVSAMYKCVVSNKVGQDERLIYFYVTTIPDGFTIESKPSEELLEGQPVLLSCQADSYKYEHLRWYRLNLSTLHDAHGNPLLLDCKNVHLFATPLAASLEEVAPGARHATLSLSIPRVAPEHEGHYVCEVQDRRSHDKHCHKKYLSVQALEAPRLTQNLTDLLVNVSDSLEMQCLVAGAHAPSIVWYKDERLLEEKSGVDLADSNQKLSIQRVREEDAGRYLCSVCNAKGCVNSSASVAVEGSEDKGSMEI
Briefly: ELISA, 1 µg/ml antigen coated, 1 µg/ml antibody. Here is the method:
(§1) Briefly, 1 μg/ml human VEGFR1 (Sino Biological, cat #10136-H08H), VEGFR2 (Acrobiosystem, cat #KDR-H5227) and VEGFR3 (Sino Biological, cat #10806-H08H) protein were coated overnight at 4° C. 1 μg/ml humanized antibodies (48-H3L1 and 54-H2L1, produced in CHO cells or Ramucirumab from Eli Lilly Germany, lot #20150819) were added for binding to coated antigen. Secondary antibody HRP conjugated goat anti-human Fc antibody were added for detection of binding signal.

Assay [6] has as its target T5, human VEGFR1 protein (human, UniProt P17948 27-756).
T5 construct: also called Sino Biological 10136-H08H
The experiment in a line: ELISA, 1 µg/ml antigen coated, 1 µg/ml antibody. How it is done:
as §1

T5 sequence (P17948 27-756 limits assumed): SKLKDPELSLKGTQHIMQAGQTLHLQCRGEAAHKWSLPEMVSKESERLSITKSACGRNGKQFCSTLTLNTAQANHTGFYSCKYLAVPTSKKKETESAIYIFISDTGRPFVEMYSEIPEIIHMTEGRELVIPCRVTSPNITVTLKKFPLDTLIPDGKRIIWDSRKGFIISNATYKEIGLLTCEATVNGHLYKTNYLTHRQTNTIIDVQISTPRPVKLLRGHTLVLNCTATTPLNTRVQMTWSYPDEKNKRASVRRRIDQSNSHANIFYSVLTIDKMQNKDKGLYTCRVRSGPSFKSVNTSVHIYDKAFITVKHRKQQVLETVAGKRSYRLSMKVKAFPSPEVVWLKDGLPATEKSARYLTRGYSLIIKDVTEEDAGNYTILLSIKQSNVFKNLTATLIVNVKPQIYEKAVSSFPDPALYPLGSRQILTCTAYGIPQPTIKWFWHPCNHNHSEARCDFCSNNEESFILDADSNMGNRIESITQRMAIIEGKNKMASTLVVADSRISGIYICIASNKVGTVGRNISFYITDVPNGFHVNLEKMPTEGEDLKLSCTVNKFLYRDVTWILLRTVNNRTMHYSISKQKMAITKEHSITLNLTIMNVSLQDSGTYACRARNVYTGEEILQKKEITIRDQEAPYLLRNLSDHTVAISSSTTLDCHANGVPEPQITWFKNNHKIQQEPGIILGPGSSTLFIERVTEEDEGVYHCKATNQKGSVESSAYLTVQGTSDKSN

B1: 54-H2L1 (humanized Mab54) (antibody, human IgG1, V domains shown)
VH: EVQLVESGGGLVKPGGSLRLSCAASGFTFSMYGMSWVRQAPGKRLEWVASISIGGSYTYYADSVKGRFTISRDNAKNTLYLQMNSLRAEDTAVYYCARELDGNYDYWGQGTTLTVSS
VL: DIVITQDELSLPVTFGESVSISCRSSKSLLYKDGKTYLNWFLQRPGQSPQLLIYLMSTRASGVSDRFSGSGSGTDFTLKISRVEAEDVGIYYCQQLVEYPFTFGSGTKLEIK
notes: also called 54-H2L1 (CHO); humanized 54 variant H2L1
Turning to B1, the 50% effective concentration (EC50) in assay [1] is 0.00755 µg/mL; in assay [3], 0.0111 µg/mL. Further, the half-maximal effective concentration (EC50 (read off the curve)) in assay [2] was roughly 0.3 µg/mL. In addition, the half-inhibitory concentration (IC50) in assay [4] turned out to be 0.805 µg/mL. The binding result in assay [5] and in assay [6] was “no binding (tested: 1 µg/ml)” in each case.

By EC50 is commonly meant the concentration giving half of the maximal effect. The term EC50 (read off the curve) denotes the concentration that produces a half-maximal response. The low end stands for a more potent agent, the high end for a less potent agent. A word on the IC50: it is the midpoint of a concentration-inhibition curve.
